Consider four molecules from patent US20250171534A1 (D2M BIOTHERAPEUTICS, published 2025).

Numbering of substitutions follows the chain as printed. Read-outs that look alike come from different tables or passages of the source.

Experiment [1] deals with T1, human LILRB2 expressed on cells (human, UniProt Q8N423 22-597).
T1 construct: In 293T cells it was expressed from pCMV3-LILRB2-GFP; also called CHO-LILRB2; Jurkat-LILRB2
Kind of experiment: flow cytometry, CHO-LILRB2 cells. (In flow cytometry, cells or beads pass a laser one at a time.)

In experiment [2] the target is T2, LILRB1-ECD-HIS (SinoBiological Cat #: 16014-H02H) (human, UniProt Q8NHL6 24-461).
T2 construct: Bought protein; also called monomeric antigen LILRB1-ECD-HIS; not shown: His tag
Kind of experiment: SPR (Carterra LSA), antibody captured, antigen injected.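 Further: kd obtained from kinetic analysis of antibody binding to the antigen, with association and dissociation phases fitted in the instrument software.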

Experiment [3] addresses T3, LILRB2-ECD-HIS (SinoBiological Cat #: 14132-H02H) (human, UniProt Q8N423 22-460).
T3 construct: Bought protein; also called monomeric antigen LILRB2-ECD-HIS; not shown: His tag
The description is as above.

Experiment [4] concerns the target T4, human LILRB1 expressed on cells (human, UniProt Q8NHL6 24-650).
T4 construct: In 293T cells it was expressed from pCMV3-LILRB1-GFP; also called CHO-LILRB1; Jurkat-LILRB1
Kind of experiment: flow cytometry, CHO-LILRB1 cells.

Experiment [5] deals with T1, human LILRB2 expressed on cells. Kind of experiment: flow cytometry, Jurkat-LILRB2 cells; blocked ligand: APC HLA-G monomer tetramer.
For experiment [6], the target named is T4, human LILRB1 expressed on cells. Kind of experiment: flow cytometry, Jurkat-LILRB1 cells; blocked ligand: APC HLA-G trimer tetramer.
Experiment [7] has the same target. Kind of experiment: flow cytometry, Jurkat-LILRB1 cells.
Experiment [8] deals with T2, LILRB1-ECD-HIS (SinoBiological Cat #: …). Kind of experiment: BLI (Gator), RB1-ECD-his.
The target of experiment [9] is T3, LILRB2-ECD-HIS (SinoBiological Cat #: …). Kind of experiment: BLI (Gator), RB2-ECD-his.
Experiment [10] shares this target. Briefly: SPR (Carterra), LILRB2-ECD-his.
Experiment [11] concerns the target T4, human LILRB1 expressed on cells. Briefly: flow cytometry, Jurkat-LILRB1 cells. The source holds these as a separate data set.
The target is the same in experiment [12]. Briefly: flow cytometry, Jurkat-LILRB1 cells; blocked ligand: APC HLA-G trimer tetramer. The source holds these as a separate data set.
The target in experiment [13] is T2, LILRB1-ECD-HIS (SinoBiological Cat #: …). Kind of experiment: SPR (Carterra), LILRB1-ECD-his.
Experiment [14] addresses T5, cynomolgus monkey putative LILRB2 (antigen of the Gator measurement) (cynomolgus monkey).
T5 construct: also called cynomolgus monkey LILRB2
Kind of experiment: BLI (Gator), cyno RB2-his.

The target in experiment [15] is T1, human LILRB2 expressed on cells. Kind of experiment: flow cytometry, Jurkat-LILRB2 cells.
For experiment [16] the target is unchanged. Briefly: flow cytometry, Jurkat-LILRB2 cells. This is another data set of the same source.
The target in experiment [17] is T6, LILRB3 expressed on cells (human, UniProt O75022 24-631).
T6 construct: whole, on cells; Expressed with a GFP tag from the bought plasmid; also called human LILRB3; CHO-LILRB3
Briefly: flow cytometry on CHO-LILRB3 cells, non-linear fit of the curves of FIG. 26C.

Experiment [18] deals with T1, human LILRB2 expressed on cells. Briefly: flow cytometry on CHO-LILRB2 cells, non-linear fit of the curves of FIG. 26B.
Experiment [19] addresses T4, human LILRB1 expressed on cells. Kind of experiment: flow cytometry on CHO-LILRB1 cells, non-linear fit of the curves of FIG. 26A.
The target in experiment [20] is T6, LILRB3 expressed on cells. Kind of experiment: flow cytometry on CHO-LILRB3 cells (CHO-RB3), titrated antibody, labelled anti-human Fc, gMFI.
Experiment [21] deals with T7, LILRA6 expressed on cells (human, UniProt Q6PI73 24-481).
T7 construct: whole, on cells; GFP-tagged; also called human LILRA6; CHO-LILRA6
Kind of experiment: flow cytometry on CHO-LILRA6 cells, non-linear fit of the curves of FIG. 26F.

Experiment [22] deals with T8, cynomolgus (monkey) LILRB2 expressed on CHO cells (cynomolgus monkey).
T8 construct: whole, on cells; Putative orthologue; also called cynoLILRB2; cynoRB2
Briefly: flow cytometry on CHO-cynoLILRB2 cells, non-linear fit of the curves of FIG. 26D.

Experiment [23] has as its target T9, LILRA1 expressed on cells (human, UniProt O75019 17-489).
T9 construct: whole, on cells; GFP-tagged; also called human LILRA1; CHO-LILRA1
Kind of experiment: flow cytometry on CHO-LILRA1 cells, non-linear fit of the curves of FIG. 26E.

Experiment [24] addresses T1, human LILRB2 expressed on cells. Briefly: flow cytometry on CHO-LILRB2 cells (CHO-RB2), titrated antibody, labelled anti-human Fc, gMFI.
For experiment [25], the target named is T9, LILRA1 expressed on cells. Kind of experiment: flow cytometry on CHO-LILRA1 cells (CHO-RA1), titrated antibody, labelled anti-human Fc, gMFI.
Experiment [26] concerns the target T8, cynomolgus (monkey) LILRB2 expressed on …. Briefly: flow cytometry on CHO-cynoLILRB2 cells (CHO-cyno RB2), titrated antibody, labelled anti-human Fc, gMFI.
Experiment [27] has as its target T4, human LILRB1 expressed on cells. Kind of experiment: flow cytometry on CHO-LILRB1 cells (CHO-RB1), titrated antibody, labelled anti-human Fc, gMFI.
For experiment [28], the target named is T8, cynomolgus (monkey) LILRB2 expressed on …. Kind of experiment: flow cytometry on CHO-cynoLILRB2 cells.
Experiment [29] concerns the target T1, human LILRB2 expressed on cells. Kind of experiment: flow cytometry, CHO-LILRB2 cells. This is another data set of the same source.

T4 sequence (Q8NHL6 other isoform, or with tags, fused parts or gaps limits assumed): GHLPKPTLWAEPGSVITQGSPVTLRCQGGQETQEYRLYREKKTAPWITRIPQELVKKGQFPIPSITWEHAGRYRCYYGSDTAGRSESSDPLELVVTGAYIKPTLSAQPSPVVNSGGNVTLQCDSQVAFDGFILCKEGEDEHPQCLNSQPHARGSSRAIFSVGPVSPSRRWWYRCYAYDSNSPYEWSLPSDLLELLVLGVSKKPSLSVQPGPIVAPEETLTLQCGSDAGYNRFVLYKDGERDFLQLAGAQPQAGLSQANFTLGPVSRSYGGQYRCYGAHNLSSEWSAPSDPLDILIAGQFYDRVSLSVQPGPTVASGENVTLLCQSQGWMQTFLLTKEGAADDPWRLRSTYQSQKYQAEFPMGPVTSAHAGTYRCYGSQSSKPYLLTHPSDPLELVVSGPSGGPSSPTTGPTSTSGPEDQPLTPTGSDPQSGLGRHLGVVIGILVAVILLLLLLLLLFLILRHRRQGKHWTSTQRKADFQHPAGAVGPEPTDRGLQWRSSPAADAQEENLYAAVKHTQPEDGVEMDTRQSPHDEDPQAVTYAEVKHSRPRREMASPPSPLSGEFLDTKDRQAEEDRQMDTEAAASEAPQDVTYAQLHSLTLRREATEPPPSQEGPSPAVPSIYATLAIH
T2 sequence (Q8NHL6 other isoform, or with tags, fused parts or gaps H02H H02H): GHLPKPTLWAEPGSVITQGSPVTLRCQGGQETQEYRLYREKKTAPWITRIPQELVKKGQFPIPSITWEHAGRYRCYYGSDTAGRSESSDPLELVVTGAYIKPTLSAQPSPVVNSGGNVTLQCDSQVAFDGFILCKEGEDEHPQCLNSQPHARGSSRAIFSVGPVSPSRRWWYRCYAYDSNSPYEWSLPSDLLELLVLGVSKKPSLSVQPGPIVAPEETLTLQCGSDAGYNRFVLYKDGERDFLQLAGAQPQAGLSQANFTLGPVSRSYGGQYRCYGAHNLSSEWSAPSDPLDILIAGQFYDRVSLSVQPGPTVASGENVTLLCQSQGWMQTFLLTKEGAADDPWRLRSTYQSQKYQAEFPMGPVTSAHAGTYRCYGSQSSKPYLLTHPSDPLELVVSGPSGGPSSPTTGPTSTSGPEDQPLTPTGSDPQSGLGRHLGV
T9 sequence (O75019 17-489): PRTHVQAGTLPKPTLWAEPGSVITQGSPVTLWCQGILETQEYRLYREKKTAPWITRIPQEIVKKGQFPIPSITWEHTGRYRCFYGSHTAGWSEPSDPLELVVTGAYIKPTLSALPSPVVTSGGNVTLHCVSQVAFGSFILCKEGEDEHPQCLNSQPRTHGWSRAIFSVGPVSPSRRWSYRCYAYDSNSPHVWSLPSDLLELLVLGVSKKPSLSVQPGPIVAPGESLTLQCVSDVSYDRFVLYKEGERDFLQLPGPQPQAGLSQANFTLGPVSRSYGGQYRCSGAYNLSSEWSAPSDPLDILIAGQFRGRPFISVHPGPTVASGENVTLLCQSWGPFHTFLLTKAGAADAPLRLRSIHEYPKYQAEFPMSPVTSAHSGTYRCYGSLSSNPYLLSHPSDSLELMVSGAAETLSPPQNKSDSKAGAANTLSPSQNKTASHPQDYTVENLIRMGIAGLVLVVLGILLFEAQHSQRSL
T3 sequence (Q8N423 other isoform, or with tags, fused parts or gaps H02H H02H): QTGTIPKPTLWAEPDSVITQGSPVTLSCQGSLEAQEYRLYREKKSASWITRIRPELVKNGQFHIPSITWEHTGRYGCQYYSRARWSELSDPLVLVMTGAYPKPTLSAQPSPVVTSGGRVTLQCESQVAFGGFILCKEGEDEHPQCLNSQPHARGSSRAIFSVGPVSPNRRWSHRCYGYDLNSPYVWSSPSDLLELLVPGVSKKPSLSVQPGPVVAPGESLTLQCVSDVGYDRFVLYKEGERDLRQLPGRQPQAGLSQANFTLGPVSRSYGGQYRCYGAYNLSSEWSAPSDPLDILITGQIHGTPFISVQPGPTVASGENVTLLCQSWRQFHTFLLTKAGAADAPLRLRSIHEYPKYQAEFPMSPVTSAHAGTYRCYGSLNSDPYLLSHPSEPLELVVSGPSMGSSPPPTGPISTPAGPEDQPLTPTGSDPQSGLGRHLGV
T1 sequence (Q8N423 other isoform, or with tags, fused parts or gaps limits assumed): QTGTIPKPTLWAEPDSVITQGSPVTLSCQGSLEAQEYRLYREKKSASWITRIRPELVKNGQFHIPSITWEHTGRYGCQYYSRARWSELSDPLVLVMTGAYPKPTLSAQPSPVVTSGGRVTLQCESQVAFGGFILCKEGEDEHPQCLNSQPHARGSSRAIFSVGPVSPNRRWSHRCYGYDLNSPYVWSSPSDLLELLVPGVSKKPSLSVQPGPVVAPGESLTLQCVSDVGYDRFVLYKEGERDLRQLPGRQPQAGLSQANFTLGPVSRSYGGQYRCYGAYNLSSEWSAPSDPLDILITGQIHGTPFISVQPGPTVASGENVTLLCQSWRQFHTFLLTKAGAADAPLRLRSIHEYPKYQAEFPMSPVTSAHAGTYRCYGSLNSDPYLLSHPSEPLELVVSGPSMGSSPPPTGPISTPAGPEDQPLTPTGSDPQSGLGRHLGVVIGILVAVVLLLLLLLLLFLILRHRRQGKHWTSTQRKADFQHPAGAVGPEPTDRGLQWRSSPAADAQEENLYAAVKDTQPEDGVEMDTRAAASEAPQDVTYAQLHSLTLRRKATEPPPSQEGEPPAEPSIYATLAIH
T7 sequence (Q6PI73 24-481): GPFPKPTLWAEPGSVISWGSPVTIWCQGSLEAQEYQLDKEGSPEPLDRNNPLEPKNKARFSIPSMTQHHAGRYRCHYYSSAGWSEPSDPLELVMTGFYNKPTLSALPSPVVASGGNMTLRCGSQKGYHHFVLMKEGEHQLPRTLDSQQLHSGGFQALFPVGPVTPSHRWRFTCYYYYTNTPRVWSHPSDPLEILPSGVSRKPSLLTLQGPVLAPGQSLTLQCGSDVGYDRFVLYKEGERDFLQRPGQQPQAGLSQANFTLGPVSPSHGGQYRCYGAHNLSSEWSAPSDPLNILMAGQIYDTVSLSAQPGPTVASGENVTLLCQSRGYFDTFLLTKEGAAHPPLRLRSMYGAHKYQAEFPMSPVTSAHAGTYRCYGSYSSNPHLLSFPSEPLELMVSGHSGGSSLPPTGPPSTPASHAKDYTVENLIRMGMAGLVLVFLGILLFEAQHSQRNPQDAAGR

B1: D2M002-004 (antibody, human IgG1, V domains shown)
VH: EVQLQQSGAELVRPGALVKLSCKASGFNIKDYYMHWVKQRPEQGLEWIGWIDPESGNTIYDPKFQGKASMTADTSSNTAYLQLSSLTSEDTAVYYCARLDGSSYYAMDYWGQGTSVTVSS
VL: DILLTQSPASLAVSLGQRATISCRASESVDSYGNSFMHWYQQKPGQPPKLLIYLASNLESGVPARFSGSGSRTDFTLTIDPVEADDAATYYCQQNNEDPLTFGAGTKLELK
notes: Hit; also called clone #4
As for B1, the binding result in experiment [1] was “no binding (tested: 5 µg/mL)”. The affinity in experiment [2], expressed as Kd, was 23.6 nM. In addition, the Kd – broadly, the free concentration of one partner at which half of the binding sites on the other are occupied at equilibrium, for simple one-to-one binding – in experiment [3] was 1000 nM. Further, in experiment [4], it took 0.004 µg/mL to reach a half-maximal effect (EC50) and the “gMFI (max)” value worked out at 14300.

B2: D2M002-103 (antibody, V domains shown)
VH: QVQLVQSGAEVKKPGASVKVSCKASGYTFTRYVMHWVRQAPGQRLEWMGWINPNNEETKYSQKFKGRVTLTRDTSASTAYMELSSLRSEDTAVYYCARADLEILPYYDHARYAMDYWGQGTLVTVSS
VL: DIQMTQSPSSVSASVGDRVTITCRASENIYSHLAWYQQKPGKAPKLLVYNAKSLQSGVPSRFSGSGSGTDFTLTISSLQPEDFATYYCQHFWSTPPTFGGGTKVEIK
notes: also called P212_F01
B2: the IC50 (commonly the concentration that inhibits the measured activity by half) in experiment [5] amounted to 0.009 µg/mL; in experiment [6] it was 0.07 µg/mL. Moreover, the EC50 (read off the curve) – broadly, the concentration giving half of the maximal effect – was approximately 0.1 µg/mL in experiment [7] and approximately 0.06 µg/mL in [15]. Moreover, the Kd in experiment [8] is 1.1 nM; in experiment [9] it was 0.136 nM; in [10], 0.165 nM; in [13] it was 4.9 nM; in [14], 1.03 nM. Also, the values for the koff in experiment [10] and in experiment [13] were 0.000129 s⁻¹ and 0.00101 s⁻¹, respectively. The kon – broadly, the rate constant with which the complex forms – in experiment [10] is 781000 M⁻¹ s⁻¹; in experiment [13], 206000 M⁻¹ s⁻¹. For the same molecule, the EC50 (in general, the concentration needed to bring the measured effect to its halfway point) turned out to be 0.136 µg/mL in experiment [11] and 0.065 µg/mL in [16]. Moreover, the “IC50 (read off the curve)” value in experiment [12] was approximately 0.07 µg/mL.

B3: D2M002-103HV1 (antibody, V domains shown)
VH: B2 VH with M48I, W50Y
VL: B2 VL
notes: Humanized and optimized variant of the D2M002-002 lineage
Regarding B3, the EC50 is 0.12 µg/mL in [17]; 0.0599 µg/mL in experiment [18]; 0.0941 µg/mL in experiment [19]; 0.0473 µg/mL in experiment [21]; 0.059 µg/mL in [22]; 0.157 µg/mL in experiment [23]. The EC50 in experiment [28] amounted to 0.059 µg/mL. The MaxMFI in experiment [18] was 30000; in experiment [19] it was 111000; in experiment [23] it was 20300. Besides, the “EC50 (read off the curve)” value is approximately 0.1 µg/mL in [20]; approximately 0.06 µg/mL in experiment [24]; approximately 0.2 µg/mL in experiment [25]; approximately 0.06 µg/mL in [26]; approximately 0.1 µg/mL in experiment [27].

B4: #45 (antibody, human IgG1, V domains shown)
VH: QIQLLQSGPELKKPGETVKISCKASGYTFTDYSMHWVKQAPGKGLKWMGWINTETGEPTYADDFKGRFAFSLETSASTAYLQINNLKNEDTATYFCARVVRRGYFDVWGAGTTVTVSS
VL: DIQMTQSPASLSASVGETVTITCRASGNIHNYLAWYQQKQGKSPQVLVYNAKTLADGVPSRFSGSGSGTQYSLKINSLQPEDFGSYYCQHFWSTPFTFGSGTKLEIK
notes: also called D2M002-045
Consider B4, for which the Kd came out at 94.4 nM in [2] and 1000 nM in experiment [3]. Moreover, the binding result in experiment [29] is “no binding (tested: 5 µg/mL)”.
